For data set [1], the target named is T1, MgR D284A (RNase R, catalytically inactive) (Mycoplasma genitalium, UniProt P47350 1-725, D284A).
T1 sequence: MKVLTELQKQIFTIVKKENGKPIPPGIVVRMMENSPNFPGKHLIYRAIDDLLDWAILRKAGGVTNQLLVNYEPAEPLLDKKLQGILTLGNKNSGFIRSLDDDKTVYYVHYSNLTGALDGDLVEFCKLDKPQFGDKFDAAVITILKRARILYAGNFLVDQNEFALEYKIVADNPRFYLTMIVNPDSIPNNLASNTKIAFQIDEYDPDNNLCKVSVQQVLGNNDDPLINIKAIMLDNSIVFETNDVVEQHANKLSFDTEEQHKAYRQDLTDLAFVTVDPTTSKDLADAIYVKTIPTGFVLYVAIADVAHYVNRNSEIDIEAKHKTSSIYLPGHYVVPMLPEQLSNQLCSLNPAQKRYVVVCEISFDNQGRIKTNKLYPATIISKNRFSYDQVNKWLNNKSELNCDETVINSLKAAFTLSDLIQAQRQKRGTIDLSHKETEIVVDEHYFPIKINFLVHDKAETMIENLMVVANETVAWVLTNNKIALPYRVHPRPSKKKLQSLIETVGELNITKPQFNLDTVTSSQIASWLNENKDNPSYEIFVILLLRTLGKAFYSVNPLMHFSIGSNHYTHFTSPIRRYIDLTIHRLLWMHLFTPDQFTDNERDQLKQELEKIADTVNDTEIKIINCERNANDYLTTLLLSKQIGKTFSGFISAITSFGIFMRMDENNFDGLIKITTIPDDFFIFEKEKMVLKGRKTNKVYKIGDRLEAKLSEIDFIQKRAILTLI
Nature of the data set: fluorescence polarization. A general note: Polarisation of emitted light reports the rotation of a fluorescent probe.

In data set [2] the target is T1, MgR D284A (RNase R, catalytically …). Nature of the data set: crystal structure.
For data set [3] the target is unchanged. The data set can be described thus: crystal structure. The source holds these as a separate data set.

This is an account of results in paper PMC8096214.

Like-named read-outs stand apart in the source and are kept apart here.

Broadly, the Kd is the constant that tells how readily two partners part at equilibrium. A low value points to tighter binding. Molecule CAAACAAAACCGUGUAAAAACAAA (ssRNA, 2'-O-methyl at G12, G14, A23 ('me' read as suffix, as in the rA15 30-mer)) [24-nt ssRNA, 2'-O-methylated] returned a Kd in data set [1] of 6.63 ± 0.69 nM.
The same measure, in the same setting: under CAAACAAAACCGUGUAAAAACAAA (ssRNA) [24-nt ssRNA, unmethylated] stands 6.62 ± 0.7 nM.
On to AAAA (ssRNA, 2'-O-methyl at A3 ('me' read as suffix)) [4-nt 2'-O-methylated oligo rA (AAAmeA)], for which, in data set [2], the binding result is given as “binds”.

B1: 6-bp dsRNA with 7-nt 3' overhang (dsRNA)
RNA 1: CCGUGUAAAAAAA
RNA 2: ACACGG
Regarding B1, in data set [3], the binding result was “binds”.
